The record followed here is the nanobody polyreactivity screen of Harvey et al. (2022).

This series in a line: yeast display, Sf9 membrane polyspecificity reagent, FACS + sequencing; frameworks hold sequencing errors. The gist of the method:
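Galactose-induced (36–48 hours) yeast carrying a synthetic nanobody display library were exposed to 10% biotinylated, detergent-solubilized Sf9 membrane reagent at 4 °C for 1 hour. FACS followed streptavidin microbead enrichment, using low and high (top ~1%) gates for expression (anti-HA) and reagent binding (streptavidin). Colony PCR, MiSeq 2 × 250 sequencing and CDR-length filtering followed. Labels for polyreactivity reflect the gate of origin.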
Regarding “QVQLVESGGGLVQAGGSLRLSSDASGRILAGYAMGWYRQAPGKERELVAAITRGGTTYYADYVKGRFTISRDNAKNTVYLQINSMKPEDTAVVYTVSSAQYDFWGQGTQVTVSS”, the “polyreactivity (PSR sort gate)” value was “low polyreactivity”. In the case of “QVQLVESGGGLVQAGGSLRLSSDASGSIFTAYSIGWYRQAPGKERELVADITQSAGSTYADSVKGRFTISRDNAKNTVYLQMNSLKPADTAVYYCAARYRYPYYARYGYWGQGTQVTVSS” it was “high polyreactivity”. The entry for “QVQLVESGGGLVQAGGSLRLSSPASGITFDKYAMGWYRQAPGKERELVAAISRSAGSTYYADSVKGRFTISRDNEKYSVYLQMKSLKPEDCAVYLCAGDPLIYDDYYWGQGTNVTVSS” is “high polyreactivity”; for “QVQLVESGGGLVQAGGSLRLSSPASGLIFGAYAMGWYRQERGKERELVAAISYSGGRTYYADSVKGRFTMSRDNAKNTVYLQLNSLKPEDTAVYYCNALWYLSLSYRYDYWGQGTQVTVSS” it is “high polyreactivity”. In the case of “QVQLVESGGGLVQAGGSLRLSSPASGSIFITYAMGWYRQAPGKESELVAAIRDSGDRTYYADSVKGRFTISRDNAKKTVYFQMNSLKPEDTAVYYCNARWQEPLKYDYWGQGTQVTVSS” it was “low polyreactivity”; in that of “QVQLVESGGGLVQAGGSLRLSSPDSGYIFLPYTMGWYRQAHGKERELVASITWRGTNTYYADSVKGRFTISRDNAKNTVYLQMNSLKPEDTAGYYCTKVPTYWDPNYYYWGQGTQVTVSS”, “high polyreactivity”; in that of “QVQLVESGGGLVQAGGSLRLSTAASGIIFWYNAMGWYRQAPGKERELVAAISTGGSTNYADSVKGRFTISRDNAKNTVYLQMNSLKPEDTAVYYCAADWHRSYGAYDYWGQGTQVNVSS”, “low polyreactivity”. In the case of “QVQLVESGGGLVQAGGSLRLSWAASGFTFKYYDMGWYRLAPGQERELVAAIDTSGGNTYYADSVKGRFTISRDNAKNTGYVQMNSLKPEETAVDYCAATVPYYHDDYWGQGTQVTVSS”, the “polyreactivity (PSR sort gate)” value is on record as “low polyreactivity”. In the case of “QVQLVESGGGLVQAGGSLRLSWAASGITLHGYAMGWYRQAPGKERELVAAITGSGGRTYYADSVKGRFTISRDNAKNTVYLQMNSLKPEDTAVYYCNAGAVYWGYSRGWYERDYWGQGTQVTVSS” it was “high polyreactivity”; in that of “QVQLVESGGGLVQAGGSLRLSWAASGRIFIGYPMGWYRQAPGKERELVAAISRNGDNTYYADSVKGRFTISRDNAKNTVYLQMNSLKPEDSAVYYCAAVAYPREWKLSYEDGSWGYDYWGQGTQVTVSS”, “low polyreactivity”. The entry for “QVQLVESGGGLVQAGGSLRLSWAASGRIFYFYAMGWYRQAPGKERELVASISSGGITNYADSVKGRFTISRDNAKNTVYLQMNSLKPEDTAVYYCNAGYASGKYSGGYLYGYWGQGTQVTVSS” is “low polyreactivity”. In the case of “QVQLVESGGGLVQAGGSLRLSWAASGSIFFFNAMGWYRQAPGKEREFVAAITSSSGRTYYADSVKGRFTISRDNAKNTVYLQMNRLKPEDTAVYYCAAQVPEDTETVDYWGQGTQVTVSS” it was “low polyreactivity”; in that of “QVQLVESGGGLVQAGGSLRLSWAASGSIFQVYAMGWYRQAPGKEREFVAAISYSGGGTYYADSVKGRFTISRDNAKNTVYLQMNSLKPEDTAVYYCAADVSGWEYDYWGQGTQVTVSS”, “low polyreactivity”. Turning to “QVQLVESGGGLVQAGGSLRLSWAASGSTFEYNVMGWYRQAPGKERELVAAITQGDGGSTYYADSVKGRFTISRDNAKKTVYLQKNSLIPEDTAVYYCNAGYFTEYNSWGQGTEVTVSS”, the “polyreactivity (PSR sort gate)” value is recorded as “high polyreactivity”. In the case of “QVQLVESGGGLVQAGGSLRLSYAASGSTFFFNALGWYRQAPGKERELVATISRDGSTNYADSVKGRFTISRDNAKNTVYLQINSLKPEDTAVYYCAAGWGWPYHQYDYWGQGTQVTVSS” it was “low polyreactivity”; in that of “QVQLVESGGGLVQAGGSLRLTCAASARTFVGNAMGWYRQAPGKERELVAVITGSGARTYYADSVKGRFTISRDNAKNTVYLQMNSLKPEDTAVYYCAGSGYSGQYRSYYWGQGTQVTVSS”, “high polyreactivity”.
